Measured values: US20240216509A1

Molecular target: PD-L1 CAR (2nd generation CAR, PDL1-CD28-CD3ζ) expressed on NK-92 cells (human) (UniProt P01732)
Assay: cell-based or functional assay

UniProt P01732, sequence (P01732 other isoform, or with tags, fused parts or gaps limits assumed): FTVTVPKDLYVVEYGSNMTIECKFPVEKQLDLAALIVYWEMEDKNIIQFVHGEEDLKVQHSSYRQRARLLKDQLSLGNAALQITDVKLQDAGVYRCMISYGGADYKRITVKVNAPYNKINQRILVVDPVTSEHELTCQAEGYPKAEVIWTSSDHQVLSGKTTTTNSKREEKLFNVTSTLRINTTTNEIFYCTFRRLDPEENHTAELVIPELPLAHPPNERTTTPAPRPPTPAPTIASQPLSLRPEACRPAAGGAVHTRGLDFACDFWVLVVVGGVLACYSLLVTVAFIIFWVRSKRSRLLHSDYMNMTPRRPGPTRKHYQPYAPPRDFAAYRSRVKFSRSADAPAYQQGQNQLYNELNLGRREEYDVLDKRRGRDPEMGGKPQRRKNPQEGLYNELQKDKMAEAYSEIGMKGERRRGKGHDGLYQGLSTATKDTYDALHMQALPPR

recombinant human PD-1-Fc fusion protein (rhPD-1-Fc) (from UniProt Q15116 25-167)
EC50 of degranulation of CAR NK-92 over increasing concentrations of plate-bound rhPD-1-Fc: 0.61 µg/mL
